Data: the supplement of paper PMC9170038

Test system: MS2 coat protein
Experiment: apparent KD of MS2 coat protein; designed switch direction (-1 OFF switch, 1 ON switch): -1; higher = weaker reporter binding
How it was run: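 Designed RNA switches were transcribed on Illumina chips by stalled E. coli RNA polymerase and titrated with SNAP-549-labelled MS2 coat protein from 0.7 or 1.5 nM, doubling to 3 µM. Step length ran from 0.8–1.5 h at the lowest concentration to 10–20 min at the highest. The apparent KD is the median over clusters for each design, from curve-fitted normalised cluster fluorescence.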

[1] = input ligand: microRNA oligo, concentration not stated
[2] = Eterna round: R95, input ligand: FMN 200 uM
[3] = Eterna round: R95, input ligand: microRNA oligo, concentration not stated
[4] = Eterna round: R95, input ligand: none

Sequence: CUCGUGUGAGGAUAUUCACACCCGUCAAAACAACGGACAAAGAAGAAGGCACAUGAGGAUCACCCAUGUAAAGA [Usenisor] (Eterna round: R97, puzzle: Exclusion 4)
- apparent KD of MS2 coat protein (input ligand: FMN 200 uM): 92.1 nM
- apparent KD of MS2 coat protein (input ligand: none): 106 nM

Sequence: GCGCGUAGAUAGGAUAUUUGAUAAAGACGGACCAAAGAAGGAUUUACAUGAGGAUCACCCAUGUCGAUCCUCUU [EX6 C.17] (Eterna round: R97, puzzle: Exclusion 6)
- apparent KD of MS2 coat protein (input ligand: FMN 200 uM): 14.2 nM
- apparent KD of MS2 coat protein (input ligand: none): 16.4 nM

Sequence: GUCAUCACACAUGGGAUCAACAUGAGGAUCACCCAUGUUGCCAAGUUUUUUGCACGUCUUAUAAUACGUUUGAUGAG [Mod-Jxe] (Eterna round: R97, puzzle: Sensor, turn-off variant 1)
- apparent KD of MS2 coat protein (input ligand: FMN 200 uM): 31.7 nM
- apparent KD of MS2 coat protein (input ligand: none): 29.9 nM

Sequence: UUAUUAUAUGUAGGAUAUGCGUAUUAUUGUUAUGCAGAAGGACAUGAGGAUCACCCAUGUAUAUUAUUGUUGUAUAUUAUAUAU [Title] (Eterna round: R96, puzzle: Exclusion NG 1)
- apparent KD of MS2 coat protein [1]: 20.7 nM

Sequence: GCUUGGCGAGGAUAUACAUGAGGAUCACCCAUGUGAGAGAAUAAAGUGAGGAAGAAAAGUAGAAGGCGCUGAGG [Mat - Exclusion 3 - Mod of Salish D58] (Eterna round: R96, puzzle: Exclusion 3)
- apparent KD of MS2 coat protein (input ligand: FMN 200 uM): 181 nM
- apparent KD of MS2 coat protein [1]: 45 nM
- apparent KD of MS2 coat protein (input ligand: none): 54.5 nM

Sequence: CGUUCGCGAGGAUAUGCAUUCGAGUCCACUACGUGUCUGGGACUUGAGGAUCACCCAAGUAGAAGGCGCCUCCC [salish99_ex2_r4_649] (Eterna round: R97, puzzle: Exclusion 2)
- apparent KD of MS2 coat protein (input ligand: FMN 200 uM): 71.3 nM
- apparent KD of MS2 coat protein (input ligand: none): 47.9 nM

Sequence: AAAAAACAAGGAUAUACAAAAAAAAAAUGUGAUAAAAAACCACAUGAGGAUCACCCAUGUAGAAGGUGUAAAAA [JR_Exclusion2_Sub003] (puzzle: Exclusion 2)
- apparent KD of MS2 coat protein [2]: 55.6 nM
- apparent KD of MS2 coat protein [3]: 62.8 nM
- apparent KD of MS2 coat protein [4]: 65 nM

Sequence: GCAGGAUAAGUGAGGAUAUACCUAUGGAUACAUAGGUAGAAGGUACAUGAGGAUCACCCAUGUUCCUCACCUGC [Fiskers BMX 4 - 64] (puzzle: Brourd's mod of Exclusion 4)
- apparent KD of MS2 coat protein [3]: 10.1 nM

Sequence: ACAUGUCAUUGAGGAUAUCGCACACAUGAGGAUCACCCAUGUAAACAGAUGCUCAUAAGUGGGUUCGAGAAGGCGAUGUACAUU [Ex NG2 #100] (Eterna round: R96, puzzle: Exclusion NG 2)
- apparent KD of MS2 coat protein (input ligand: FMN 200 uM): 318 nM
- apparent KD of MS2 coat protein [1]: 119 nM
- apparent KD of MS2 coat protein (input ligand: none): 117 nM

Sequence: UAGCAACGAGGAUAUGCGGGCCUGAACCUAAAGUCGACCUUACAUGAGGAUCACCCAUGUAGAAGGCGUAGUGU [Eternabot (L2) Solution 71] (Eterna round: R97, puzzle: Exclusion 2)
- apparent KD of MS2 coat protein (input ligand: FMN 200 uM): 16.8 nM
- apparent KD of MS2 coat protein (input ligand: none): 18.3 nM

Sequence: GAAUAGAGAGGAUAUGCGAUGUAGGUAGUACGAUAUAUCUGACAUGAGGAUCACCCAUGUAGAAGGCUCAGAUC [EX2 #6] (Eterna round: R97, puzzle: Exclusion 2)
- apparent KD of MS2 coat protein (input ligand: FMN 200 uM): 33.9 nM
- apparent KD of MS2 coat protein (input ligand: none): 36.4 nM

Sequence: UAACACCGAGGAUAUACAUUUCUCAUAAGGUGCAAAACCGCACAUGAGGAUCACCCAUGUAGAAGGCGGCAAAU [Enrabeange] (puzzle: Exclusion 2)
- apparent KD of MS2 coat protein [2]: 32 nM
- apparent KD of MS2 coat protein [3]: 10.5 nM
- apparent KD of MS2 coat protein [4]: 14.8 nM

Sequence: ACAAGCUUUUUGCUCGGGUACAUGAGGAUCACCCAUGUUUGGGUUUAUUGAGGUUGUGUUGUCGUGCGCUGCAGGUU [JR_SV3TOV1_Sub076] (puzzle: Sensor v3, turn-off variant 1)
- apparent KD of MS2 coat protein [2]: 165 nM
- apparent KD of MS2 coat protein [3]: 416 nM
- apparent KD of MS2 coat protein [4]: 232 nM

Sequence: AUUAUAUAGAAAGGAUAUUGAUUAUUAUUUUAACAUGAGGAUCACCCAUGUAGCCUUAUGUAUAACAAGAAGGUUCAUUUAUUA [Title] (Eterna round: R96, puzzle: Exclusion NG 2)
- apparent KD of MS2 coat protein [1]: 58.4 nM

Sequence: GUCAGCUCGUGAGGAUAUACAUGAGGAUCACCCAUGUGGUCAUUAGCAGCUUCGGCUGCAUUAAUGUAGAAGGCACGAGCUGAC [ENG2/8-A1] (Eterna round: R96, puzzle: Exclusion NG 2)
- apparent KD of MS2 coat protein (input ligand: FMN 200 uM): 635 nM
- apparent KD of MS2 coat protein [1]: 690 nM
- apparent KD of MS2 coat protein (input ligand: none): 1140 nM

Sequence: UAUUACUCAGGAUAUAUGAUGUGAAACAUGAGGAUCACCCAUGUAAUAUUAUGGAUGUAAAUAGAAGGGAGAUUAU [Mat - Exclusion 5 - JL mod - D19] (puzzle: Exclusion 5)
- apparent KD of MS2 coat protein [2]: 49.2 nM
- apparent KD of MS2 coat protein [3]: 51.8 nM
- apparent KD of MS2 coat protein [4]: 64.6 nM

Sequence: AGAGAGUCAGGAUAUCGAAGGGAGAGGAAAGGAGAGAGGGACGAGAAGGGACAUGAGGAUCACCCAUGUAGGUG [JR_Exclusion4)Sub016] (puzzle: Exclusion 4)
- apparent KD of MS2 coat protein [2]: 233 nM
- apparent KD of MS2 coat protein [3]: 200 nM
- apparent KD of MS2 coat protein [4]: 432 nM

Sequence: CGUGUGUCAGGAUAUACGUUGGGCCAGCAUGGCUAAAGACAGUAGAAGGGACAUGAGGAUCACCCAUGUGGAGU [Eternabot (L2) Solution 4] (Eterna round: R97, puzzle: Exclusion 4)
- apparent KD of MS2 coat protein (input ligand: FMN 200 uM): 571 nM
- apparent KD of MS2 coat protein (input ligand: none): 78.9 nM

Sequence: CUCCUCGUGGCGCCUAAACACAUGAGGAUCACCCAUGUACAGGCUUUUUGCCGUCUUACAAUAAAACCGAGGAUACG [Inveon] (puzzle: Sensor v3, turn-off variant 1)
- apparent KD of MS2 coat protein [2]: 19.8 nM
- apparent KD of MS2 coat protein [3]: 50.8 nM
- apparent KD of MS2 coat protein [4]: 20.4 nM

Sequence: GGAUCGAAAGUGAGGAUAUACCUAUGGAAACAUAGGUAGAAGGCACAUGAGGAUCACCCAUGUUCCUACGGUCC [Mat - Exclusion 4 - Eli Mod - D10] (Eterna round: R97, puzzle: Brourd's mod of Exclusion 4)
- apparent KD of MS2 coat protein (input ligand: FMN 200 uM): 113 nM
- apparent KD of MS2 coat protein (input ligand: none): 20 nM

Sequence: AAAGGAGUAGGAUAUGAGCCCAAAUACAUGAGGAUCACCCAUGUCGGGUUCAUGGAGGGCUUAGAAGGAUUUAAAA [Onreridi] (Eterna round: R97, puzzle: Exclusion 5)
- apparent KD of MS2 coat protein (input ligand: FMN 200 uM): 25.8 nM
- apparent KD of MS2 coat protein (input ligand: none): 23.1 nM

Sequence: AGAUCACAUGAGGAUCACCCAUGUCAGGAUAUCAUCAUUGAAGCUGCGGCUUCAAUGAUGAGAAGGGACAUAAU [E1/2-B3] (Eterna round: R97, puzzle: Exclusion 1)
- apparent KD of MS2 coat protein (input ligand: FMN 200 uM): 105 nM
- apparent KD of MS2 coat protein (input ligand: none): 412 nM

Sequence: GAUUAUGCGAGCUUUAGGGACAUGAGGAUCACCCAUGUUCGUCUUAUUAAUCUAGGUACACUGACAUACCUAAAUCU [JMF 64] (puzzle: Sensor v3, turn-off variant 1)
- apparent KD of MS2 coat protein [2]: 21.3 nM
- apparent KD of MS2 coat protein [3]: 30.5 nM
- apparent KD of MS2 coat protein [4]: 21 nM

Sequence: UUCAUGUGAGGAUAUUAGUAGUAAAUAAAUAAAAUUAUUACUGAGAAGGUACAUGAGGAUCACCCAUGUUCCUU [Salish 062 v22] (Eterna round: R97, puzzle: Exclusion 4)
- apparent KD of MS2 coat protein (input ligand: FMN 200 uM): 18.5 nM
- apparent KD of MS2 coat protein (input ligand: none): 13.9 nM

Sequence: AGCUGUGGCCGAGGAUAUCACGAACCAUGGAAAACCAUGGAACUCACACAUGAGGAUCACCCAUGUGAGAAGGCGGUCUCAGCA [Eli eng2 - 021] (Eterna round: R96, puzzle: Exclusion NG 2)
- apparent KD of MS2 coat protein (input ligand: FMN 200 uM): 16.3 nM
- apparent KD of MS2 coat protein [1]: 8.68 nM
- apparent KD of MS2 coat protein (input ligand: none): 15.1 nM

Sequence: CCUCAGAUGUAGGAUAUCGCCCAGACAUUGCGGCGAGAAGGACAAACAUGAGGAUCACCCAUGUUAGUUUAGCA [Eternabot (L2) Solution 92] (Eterna round: R97, puzzle: Exclusion 6)
- apparent KD of MS2 coat protein (input ligand: FMN 200 uM): 257 nM
- apparent KD of MS2 coat protein (input ligand: none): 32.3 nM
